According to US20250075006A1 (SHANDONG SIMCERE BIOPHARMACEUTICAL, published 2025):
Read-outs that look alike come from different tables or passages of the source.

Key:
[1] = target: T1, Human GUCY2C ECD (his-tagged human GUCY2C protein extracellular domain fusion protein) (human, UniProt P25092 24-430); experiment: ELISA, plate coated with human GUCY2C-his, OD450
T1 construct: also called human GUCY2C-his; human GUCY2C-His
Procedure: (§1) To assay the binding activity of the humanized antibodies to human GUCY2C-his protein, a human GUCY2C-his protein was diluted with PBS to a final concentration of 2 μg/mL and then added to a 96-well ELISA plate at 50 μL/well. The plate was sealed with a plastic film and incubated at 4° C. overnight. The next day, the plate was washed 2 times with PBST, and a blocking buffer [PBS+2% (w/w) BSA] was added for blocking at room temperature for 2 h. The blocking buffer was discarded, and the plate was washed 2 times with PBST. An antibody to be tested or a control antibody diluted in a 1:3 gradient from a starting concentration of 100 nM was added at 50 μL/well. After incubation at 37° C. for 1 h, the plate was washed 3 times with PBST. A horseradish peroxidase (HRP)—labeled secondary antibody (purchased from Merck, Cat. No. AP113P) was added for incubation at 37° C. for 1 h, and the plate was washed 5 times with PBST. A TMB substrate was added at 50 µL/well for incubation at room temperature for 5-10 min, and then a stop solution (1.0 M HCl) was added at 50 μL/well. OD450 nm values were read using an ELISA plate reader (Multimode Plate Reader, EnSight, purchased from Perkin Elmer).

[2] = target: T1, Human GUCY2C ECD (his-tagged human …); experiment: ELISA, plate coated with human GUCY2C-his, OD450; remark: listed apart in the source
Procedure: as §1

[3] = target: T1, Human GUCY2C ECD (his-tagged human …); experiment: ELISA, plate coated with human GUCY2C-his, OD450; remark: listed apart in the source
Procedure: as §1

[4] = target: T2, Cyno GUCY2C ECD (his-tagged cynomolgus monkey GUCY2C protein extracellular domain fusion protein) (cynomolgus monkey, UniProt P25092 24-430 (human entry)); experiment: ELISA, plate coated with monkey GUCY2C-his, OD450
T2 construct: also called monkey GUCY2C-his; monkey GUCY2C-His
T2 chain: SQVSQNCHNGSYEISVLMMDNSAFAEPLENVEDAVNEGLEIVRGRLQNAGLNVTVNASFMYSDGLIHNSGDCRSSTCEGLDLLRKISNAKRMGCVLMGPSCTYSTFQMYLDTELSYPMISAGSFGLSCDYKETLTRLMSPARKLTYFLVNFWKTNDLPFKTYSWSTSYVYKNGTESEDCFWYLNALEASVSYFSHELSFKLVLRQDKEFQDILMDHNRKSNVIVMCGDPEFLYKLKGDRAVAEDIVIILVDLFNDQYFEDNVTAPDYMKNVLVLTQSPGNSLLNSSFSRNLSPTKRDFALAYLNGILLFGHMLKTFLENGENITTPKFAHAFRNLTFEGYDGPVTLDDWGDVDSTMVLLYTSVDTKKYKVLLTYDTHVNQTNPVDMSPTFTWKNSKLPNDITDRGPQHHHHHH

[5] = target: T2, Cyno GUCY2C ECD (his-tagged cynomolgus …); experiment: ELISA, plate coated with monkey GUCY2C-his, OD450
[6] = target: T1, Human GUCY2C ECD (his-tagged human …); experiment: BLI Gator, antibody on anti-human Fc probe, antigen in solution
Procedure: (§2) Next, we measured the affinity of the recombinant antibody by another method, and the specific procedures were as follows: the binding strength of the antibody to the antigen was assayed by acquiring and analyzing the signal change of the reflection interference spectrum on the surface of the optical probe by using thin film interference technology. First, the probe was equilibrated for 300 s with HBS-T+pH 7.4 (0.02% tween) as the mobile phase. 2 μg/mL of the antibody to be tested was captured by an anti-human FC probe (purchased from ProbeLife, PL168-160003) for 240 s, and then antigen proteins with the concentration of 200 nM and diluted two-fold were injected. Kon for 300 s and Koff for 600 s. The association and dissociation processes of the antibody with the antigen protein were recorded, and finally, the chip was regenerated using Glycine pH 2.0 (purchased from GE), wherein the mobile phase was HBS-T+pH 7.4 (0.02% tween), the regeneration time was 5 s, and the assay temperature was 30° C. Finally, according to a 1:1 binding model, the data were analyzed, and the antibody-antigen binding kinetics parameters, including the association rate constant Ka, the dissociation rate constant Kd, the equilibrium dissociation constant KD, and the maximum binding signal Rmax, were fitted. The association rate (Ka), dissociation rate (Kd), and binding affinity (KD) of the recombinant antibodies with the human GUCY2C and monkey GUCY2C proteins are shown in Table 6.
(§3) After the finally obtained various humanized antibodies were expressed and purified, the affinities of the humanized antibodies for the human and monkey GUCY2C proteins were separately assayed according to the method in Example 4.6.

[7] = target: T2, Cyno GUCY2C ECD (his-tagged cynomolgus …); experiment: as above
Procedure: as §2, §3

T1 sequence (P25092 other isoform, or with tags, fused parts or gaps): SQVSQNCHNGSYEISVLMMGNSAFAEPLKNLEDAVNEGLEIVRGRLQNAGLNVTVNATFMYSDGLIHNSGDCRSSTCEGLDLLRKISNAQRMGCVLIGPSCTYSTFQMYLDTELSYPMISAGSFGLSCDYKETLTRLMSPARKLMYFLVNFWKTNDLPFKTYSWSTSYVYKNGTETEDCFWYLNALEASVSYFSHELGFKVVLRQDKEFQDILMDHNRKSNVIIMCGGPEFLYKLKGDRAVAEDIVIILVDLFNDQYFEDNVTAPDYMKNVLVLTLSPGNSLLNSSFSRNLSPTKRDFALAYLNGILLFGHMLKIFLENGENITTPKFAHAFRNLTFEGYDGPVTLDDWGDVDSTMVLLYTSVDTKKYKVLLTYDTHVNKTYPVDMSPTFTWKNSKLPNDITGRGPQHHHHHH

B1: 5F9-hIgG1 (antibody, V domains shown)
VH: QVQLQQWGAGLLKPSETLSLTCAVFGGSFSGYYWSWIRQPPGKGLEWIGEINHRGNTNDNPSLKSRVTISVDTSKNQFALKLSSVTAADTAVYYCARERGYTYGNFDHWGQGTLVTVSS
VL: EIVMTQSPATLSVSPGERATLSCRASQSVSRNLAWYQQKPGQAPRLLIYGASTRATGIPARFSGSGSGTEFTLTIGSLQSEDFAVYYCQQYKTWPRTFGQGTNVEIKR
notes: also called positive control antibody
EC50 (read off the curve) [1]: ~0.04 nM
EC50 (read off the curve) [2]: ~0.04 nM
EC50 (read off the curve) [3]: ~0.04 nM
EC50 (read off the curve) [4]: ~0.04 nM
EC50 (read off the curve) [5]: ~0.03 nM
Kd [6]: 1.14 nM
koff [6]: 0.000448 s⁻¹
kon [6]: 391000 M⁻¹ s⁻¹
Kd [7]: 0.998 nM
koff [7]: 0.000486 s⁻¹
kon [7]: 487000 M⁻¹ s⁻¹

B2: PF1608-hIgG1 (antibody, V domains shown)
VH: EVQLVESGGGLVQPGGSLRLSCAASGFTFSSYWMHWVRQAPGKGLEWIGEIKPSNELTNVHEKFKDRFTISVDKAKNSAYLQMNSLRAEDTAVYYCTRTITTTEGYWFFDVWGQGTLVTVSS
VL: DIQLTQSPSSLSASVGDRVTITCRASESVDYYGSSLLQWYQQKPGKAPKLLIYAASKLASGVPSRFSGSGSGTDFTLTISSLQPEDFATYYCQQTRKAYTFGQGTKLEIKR
notes: also called PF1608-hlgG1; positive control antibody
EC50 (read off the curve) [1]: ~0.05 nM
EC50 (read off the curve) [2]: ~0.05 nM
EC50 (read off the curve) [3]: ~0.05 nM
EC50 (read off the curve) [4]: ~0.06 nM
EC50 (read off the curve) [5]: ~0.05 nM
Kd [6]: 0.494 nM
koff [6]: 0.000197 s⁻¹
kon [6]: 400000 M⁻¹ s⁻¹
Kd [7]: 0.256 nM
koff [7]: 0.000138 s⁻¹
kon [7]: 540000 M⁻¹ s⁻¹
